{
  "source": "patent US20230257470A1",
  "about": "(published 2023)",
  "key": {"human FcγRIIa type R": {"molecular_target": "T1, human FcγRIIa type R (human, UniProt P12318 36-217)", "T1 construct": "also called FcγRIIaR; FcγRIIa(R)", "T1 chain": "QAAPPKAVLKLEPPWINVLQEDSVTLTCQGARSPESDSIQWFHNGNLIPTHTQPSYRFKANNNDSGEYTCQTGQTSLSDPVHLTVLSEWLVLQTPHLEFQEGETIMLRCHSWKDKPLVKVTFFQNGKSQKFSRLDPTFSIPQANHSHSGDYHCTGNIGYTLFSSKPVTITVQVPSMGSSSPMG", "experiment": "SPR (Biacore), antibody captured, FcγR as analyte, method of Example 14", "procedure": "(§1) Next, interaction between these antibodies and FcγR was analyzed kinetically using the BIACORE™ T100 (GE Healthcare). The interaction was measured at a temperature of 25° C. using HBS-EP+ (GE Healthcare) for the running buffer. The Series S Sensor Chip CM5 (GE Healthcare) was used after immobilizing Protein A by amine coupling. […] Antibody captured on the chip was washed by allowing 10 mM glycine-HCl (pH 1.5) to react following measurement. The chip regenerated in this manner was used repeatedly. The dissociation constant KD (mol/L) was calculated from the association rate constant ka (L/mol/s) and dissociation rate constant kd (1/s) as calculated by global-fitting the measurement results with a 1:1 Langmuir binding model using the BIACORE™ Evaluation Software.\nFurthermore, KD(IIaR)/KD(IIb) and KD(IIaH)/KD(IIb) in the table respectively show the value obtained by dividing the KD value of each variant for FcγRIIaR by the KD value of each variant for FcγRIIb, and the value obtained by dividing the KD value of each variant for FcγRIIaH by the KD value of each variant for FcγRIIb."}, "human FcγRIIb [1]": {"molecular_target": "T2, human FcγRIIb (human, UniProt P31994 43-217, limits assumed)", "T2 construct": "Whole entry (AAI46679.1); also called FcγIIB; FcgRIIb", "T2 sequence": "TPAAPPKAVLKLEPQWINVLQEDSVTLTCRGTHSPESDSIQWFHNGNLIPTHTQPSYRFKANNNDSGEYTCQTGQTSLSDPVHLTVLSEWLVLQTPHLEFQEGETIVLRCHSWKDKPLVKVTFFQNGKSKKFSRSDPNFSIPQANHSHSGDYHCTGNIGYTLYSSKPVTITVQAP", "experiment": "ratio of SPR KD values: KD for FcγRIIaH divided by KD for FcγRIIb", "procedure": "as §1\nFurthermore, KD(IIaR)/KD(IIb) and KD(IIaH)/KD(IIb) in the table respectively represent the value obtained by dividing the KD value of each variant for FcγRIIaR by the KD value of each variant for FcγRIIb, and the value obtained by dividing the KD value of each variant for FcγRIIaH by the KD value of each variant for FcγRIIb."}, "human FcγRIIIa(F)": {"molecular_target": "T3, human FcγRIIIa(F) (human, UniProt P08637 17-208, limits assumed)", "T3 construct": "the assay used allotype F; also called FcgRIIIaF; FcγRIIIa allotype F158", "T3 sequence (P08637 other isoform, or with tags, fused parts or gaps limits assumed)": "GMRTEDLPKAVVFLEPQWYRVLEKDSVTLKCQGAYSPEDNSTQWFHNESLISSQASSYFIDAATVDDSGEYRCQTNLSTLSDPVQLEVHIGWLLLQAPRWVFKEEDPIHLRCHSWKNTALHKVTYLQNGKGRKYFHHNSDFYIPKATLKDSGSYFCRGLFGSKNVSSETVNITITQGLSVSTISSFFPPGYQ", "experiment": "SPR, antibody captured, FcγR as analyte, capture-corrected binding amount", "procedure": "(§2) Interaction between each modified antibody and Fcγ receptor prepared in the manner described above was analyzed using the BIACORE™ T100 surface plasmon resonance system (GE Healthcare), BIACORE™ T200 surface plasmon resonance system (GE Healthcare), BIACORE™ A100 surface plasmon resonance system or BIACORE™ 4000 surface plasmon resonance system. HBS-EP+(GE Healthcare) was used for the running buffer, and measurements were carried out at 25° C. The chips used were chips in which antigen peptides, Protein A (Thermo Scientific), Protein A/G (Thermo Scientific) or Protein L (ACTIGEN® protein (Alltech or BioVision) were immobilized on the Series S Sensor Chip CM5 (GE Healthcare) or Series S Sensor Chip CM4 (GE Healthcare) by amine coupling, or chips in which preliminarily biotinylated antigen peptides were allowed to interact and then immobilized on the Series S Sensor Chip SA (certified) (GE Healthcare). The target antibodies were captured on these sensor chips, Fcγ receptor diluted with the running buffer was allowed to interact, followed by measurement of the amount of bound antibody. The amounts bound were compared between antibodies. However, since the amount of Fcγ receptor bound depends on the amount of captured antibody, the values used for comparison were first corrected by dividing the amount of Fcγ receptor bound by the captured amount of each antibody. Through reaction with 10 mM glycine-HCl at pH 1.5, the sensor chips were regenerated by washing off antibody captured on the sensor chips and used repeatedly.\n(§3) Binding strength was evaluated according to the following method based on the results of analyzing the interaction with each FcγR. […] That value was then further multiplied by 100, and the resulting value was used as an indicator of relative binding activity to each FcγR."}, "human FcγRIIb [2]": {"molecular_target": "T4, human FcγRIIb (human, UniProt P31994 43-217, limits assumed)", "T4 construct": "also called FcgRIIb; FcγIIB", "T4 sequence": "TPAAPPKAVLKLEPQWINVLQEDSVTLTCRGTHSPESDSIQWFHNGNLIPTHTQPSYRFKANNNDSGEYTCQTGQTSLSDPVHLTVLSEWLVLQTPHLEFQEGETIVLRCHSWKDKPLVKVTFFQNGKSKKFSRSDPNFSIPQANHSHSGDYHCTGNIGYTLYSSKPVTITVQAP", "experiment": "SPR, antibody captured, FcγR as analyte, capture-corrected binding amount", "procedure": "as §2, §3"}, "human FcγRIIa(R)": {"molecular_target": "T5, human FcγRIIa(R) (human, UniProt P12318 36-217)", "T5 construct": "also called FcgRIIaR; FcγRIIa type R", "T5 chain": "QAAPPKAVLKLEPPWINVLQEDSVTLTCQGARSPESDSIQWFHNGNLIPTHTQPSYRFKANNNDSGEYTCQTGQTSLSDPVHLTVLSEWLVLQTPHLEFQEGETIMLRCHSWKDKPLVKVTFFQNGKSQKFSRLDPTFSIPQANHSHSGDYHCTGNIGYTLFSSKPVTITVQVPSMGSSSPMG", "experiment": "SPR, captured antibody, FcγR analyte; bound amount per captured antibody", "procedure": "as §2, §3"}},
  "data": [
    {"binder": "IL6R-PD082/IL6R-L (antibody, human IgG1, Alteration is counted against IL6R-F11; also called G237F/P238D; P238D/G237F) heavy: QVQLQESGPGLVKPSETLSLTCAVSGHSISHDHAWSWVRQPPGEGLEWIGFISYSGITNYNPSLQGRVTISRDNSKNTLYLQMNSLRAEDTAVYYCARSLARTTAMDYWGEGTLVTVSSASTKGPSVFPLAPSSKSTSGGTAALGCLVKDYFPEPVTVSWNSGALTSGVHTFPAVLQSSGLYSLSSVVTVPSSSLGTQTYICNVNHKPSNTKVDKKVEPKSCDKTHTCPPCPAPELLGFDSVFLFPPKPKDTLYISRTPEVTCVVVDVSHEDPEVKFNWYVDGVEVHNAKTKPREEQYNSTYRVVSVLTVLHQDWLNGKEYKCKVSNKALPAPIEKTISKAKGQPREPQVYTLPPSRDELTKNQVSLTCLVKGFYPSDIAVEWESNGQPENNYKTTPPVLDSDGSFFLYSKLTVDKSRWQQGNVFSCSVMHEALHYHYTQKSLSLSP light: DIQMTQSPSSLSASVGDRVTITCRASQDISSYLNWYQQKPGKAPKLLIYYTSRLHSGVPSRFSGSGSGTDFTFTISSLQPEDIATYYCQQGNTLPYTFGQGTKVEIK", "values": [
      {"measurement": "Kd", "setting": "human FcγRIIa type R", "value": 1400, "unit": "nM"}
    ]},
    {"binder": "IL6R-BP143/IL6R-L (antibody, human IgG1, name in EU numbering, Alterations introduced into IL6R-B3 (EU numbering)) heavy: QVQLQESGPGLVKPSETLSLTCAVSGHSISHDHAWSWVRQPPGEGLEWIGFISYSGITNYNPSLQGRVTISRDNSKNTLYLQMNSLRAEDTAVYYCARSLARTTAMDYWGEGTLVTVSSASTKGPSVFPLAPSSKSTSGGTAALGCLVKDYFPEPVTVSWNSGALTSGVHTFPAVLQSSGLYSLSSVVTVPSSSLGTQTYICNVNHKPSNTKVDKKVEPKSCDKTHTCPPCPAPEYLGGDSVFLFPPKPKDTLMISRTPEVTCVVVDVSHEDPEVKFNWYVDGVEVHNAKTKPREEQYNSTYRVVSVLTVLHQDWLNGKEYKCKVSNAALPAPIEKTISKAKGQPREPQVYTLPPSRDELTKNQVSLTCLVKGFYPSDIAVEWESNGQPENNYKTTPPVLDSDGSFFLYSKLTVDKSRWQQGNVFSCSVMHEALHNHYTQESLSLSP light: DIQMTQSPSSLSASVGDRVTITCRASQDISSYLNWYQQKPGKAPKLLIYYTSRLHSGVPSRFSGSGSGTDFTFTISSLQPEDIATYYCQQGNTLPYTFGQGTKVEIK", "values": [
      {"measurement": "KD(IIaH)/KD(IIb)", "setting": "human FcγRIIb [1]", "value": 4.71}
    ]},
    {"binder": "IL6R-BP147/IL6R-L (antibody, human IgG1, name in EU numbering, Alterations introduced into IL6R-B3 (EU numbering)) heavy: QVQLQESGPGLVKPSETLSLTCAVSGHSISHDHAWSWVRQPPGEGLEWIGFISYSGITNYNPSLQGRVTISRDNSKNTLYLQMNSLRAEDTAVYYCARSLARTTAMDYWGEGTLVTVSSASTKGPSVFPLAPSSKSTSGGTAALGCLVKDYFPEPVTVSWNSGALTSGVHTFPAVLQSSGLYSLSSVVTVPSSSLGTQTYICNVNHKPSNTKVDKKVEPKSCDKTHTCPPCPAPEYLGDDSVFLFPPKPKDTLMISRTPEVTCVVVDVSHEDPEVKFNWYVDGVEVHNAKTKPREEQYNSTYRVVSVLTVLHQDWLNGKEYKCKVSNAALPKPIEKTISKAKGQPREPQVYTLPPSRDELTKNQVSLTCLVKGFYPSDIAVEWESNGQPENNYKTTPPVLDSDGSFFLYSKLTVDKSRWQQGNVFSCSVMHEALHNHYTQESLSLSP light: DIQMTQSPSSLSASVGDRVTITCRASQDISSYLNWYQQKPGKAPKLLIYYTSRLHSGVPSRFSGSGSGTDFTFTISSLQPEDIATYYCQQGNTLPYTFGQGTKVEIK", "values": [
      {"measurement": "KD(IIaH)/KD(IIb)", "setting": "human FcγRIIb [1]", "value": 77.7}
    ]},
    {"binder": "GpH7-B3 L328R/GpL16-k0 (antibody, human IgG1, Anti-glypican-3 human IgG1 with B3 constant region (G1d with K439E); also called B3 variant; copies: 2 + 2) heavy: not shown light: DIVMTQSPLSLPVTPGEPASISCQASESLVHSNRNTYLHWYLQKPGQSPQLLIYKVSNRFSGVPDRFSGSGSGTDFTLKISRVEAEDVGVYYCSQNTHVPPTFGQGTKVEIE", "values": [
      {"measurement": "relative binding activity", "setting": "human FcγRIIIa(F)", "value": "1 % of GpH7-B3/GpL16-k0"},
      {"measurement": "relative binding activity", "setting": "human FcγRIIb [2]", "value": "3 % of GpH7-B3/GpL16-k0"}
    ]},
    {"binder": "GpH7-B3 L234G/GpL16-k0 (antibody, human IgG1, anti-glypican-3 IgG1; B3 constant region (G1d with K439E); also called B3 variant; copies: 2 + 2) heavy: not shown light: DIVMTQSPLSLPVTPGEPASISCQASESLVHSNRNTYLHWYLQKPGQSPQLLIYKVSNRFSGVPDRFSGSGSGTDFTLKISRVEAEDVGVYYCSQNTHVPPTFGQGTKVEIE", "values": [
      {"measurement": "relative binding activity", "setting": "human FcγRIIa(R)", "value": "9 % of GpH7-B3/GpL16-k0"}
    ]},
    {"binder": "GpH7-B3 P329Q/GpL16-k0 (antibody, human IgG1, Anti-glypican-3 human IgG1 with B3 constant region (G1d with K439E); also called B3 variant; copies: 2 + 2) heavy: not shown light: DIVMTQSPLSLPVTPGEPASISCQASESLVHSNRNTYLHWYLQKPGQSPQLLIYKVSNRFSGVPDRFSGSGSGTDFTLKISRVEAEDVGVYYCSQNTHVPPTFGQGTKVEIE", "values": [
      {"measurement": "relative binding activity", "setting": "human FcγRIIIa(F)", "value": "1 % of GpH7-B3/GpL16-k0"},
      {"measurement": "relative binding activity", "setting": "human FcγRIIb [2]", "value": "2 % of GpH7-B3/GpL16-k0"}
    ]},
    {"binder": "GpH7-B3 G236K/GpL16-k0 (antibody, human IgG1, anti-glypican-3 IgG1; B3 constant region (G1d with K439E); also called B3 variant; copies: 2 + 2) heavy: not shown light: DIVMTQSPLSLPVTPGEPASISCQASESLVHSNRNTYLHWYLQKPGQSPQLLIYKVSNRFSGVPDRFSGSGSGTDFTLKISRVEAEDVGVYYCSQNTHVPPTFGQGTKVEIE", "values": [
      {"measurement": "relative binding activity", "setting": "human FcγRIIa(R)", "value": "9 % of GpH7-B3/GpL16-k0"}
    ]}
  ]
}
